Test results published in the supplement of paper PMC7877785.
± gives the uncertainty stated by the source.

Assay: self-splicing fitness, log relative to wild type (ln ratio); higher = more splicing; Tetrahymena group I intron in knt gene, E. coli kanamycin selection, DiMSum; sequences stand for … in CUCUCU…GGAGGGAAAAGUUAUCAGGCAUGCACCUGGUAGCUAGUCUUUAAACCAAUAGAUUGCAUCGGUUUAAAAGGCAAGACCGUCAAAUUGCGGGAAAGGGGUCAACAGCCGUUCAGUACCAAGUCUCAGGGGAAACUUUGAGAUGGCCUUGCAAAGGGUAUGGUAAUAAGCUGACGGACAUGGUCCUAACCACGCAGCCAAGUCCUAAGUCAACAGAUCUUCUGUUGAUAUGGAUGCAGUUCACAGACUAAAUGUCGGUCGGGGAAGAUGUAUUCUUCUCAUAAGAUAUAGUCGGACCUCUCCUUAAUGGGAGCUAGCGGAUGAAGUGAUGCAACACUGGAGCCGCUGGGAACUAAUUUGUAUGCGAAAGUAUAUUGAUUAGUUUUGGAGUACUCGUGGUCG
Summary of the method: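 Library with all eight P1ex-region intron nucleotides randomised, intron inside the knt kanamycin-resistance gene on pET-22b(+), in E. coli BL21(DE3). Cells grew overnight at 37°C or 30°C on LB agar with or without 25 μg/mL kanamycin (plus 100 μg/mL carbenicillin, 50 μM IPTG, 0.2% rhamnose), in six replicate transformations. Pooled colonies were amplicon-sequenced on Illumina HiSeq 2500. DiMSum fitness is the error-weighted combination of wild-type-normalised replicate fold changes, kanamycin versus none.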

Row | Sequence | self-splicing fitness (ln) (37 °C) | self-splicing fitness (ln) (30 °C)
1 | GAAGAGCAAUAUUACGCCAA | -2.54 ± 0.45 | 
2 | AGCUAGCAAUAUUACGCUCU | -1.57 ± 0.24 | -2.24 ± 0.18
3 | AAUUAGCAAUAUUACGUUGA | -1.55 ± 0.11 | -2.74 ± 0.15
4 | ACAAAGCAAUAUUACGGCGU | -1.17 ± 0.093 | -1.78 ± 0.075
5 | AGCCAGCAAUAUUACGGGGG | -1.99 ± 0.21 | -3.73 ± 0.24
6 | CUGUAGCAAUAUUACGCCGU | -2.96 ± 0.4 | 
7 | CAUUAGCAAUAUUACGGGUC | -1.5 ± 0.23 | -3.51 ± 0.29
8 | AAUUAGCAAUAUUACGGCGC | -0.211 ± 0.13 | -0.632 ± 0.13
9 | UUUCAGCAAUAUUACGUGCG | 0.0636 ± 0.11 | -1.27 ± 0.12
10 | UGGCAGCAAUAUUACGCGCC | -2.9 ± 0.19 | 
11 | UGCGAGCAAUAUUACGCUUA | -1.46 ± 0.22 | -1.98 ± 0.16
12 | GUGUAGCAAUAUUACGGUCU | 0.619 ± 0.2 | -1.6 ± 0.2
13 | GAGAAGCAAUAUUACGAAGG |  | -2.97 ± 0.24
14 | CAGUAGCAAUAUUACGGUAA | -1.57 ± 0.22 | -3.19 ± 0.31
15 | CUACAGCAAUAUUACGUGAG | -0.926 ± 0.086 | -0.958 ± 0.058
16 | GCAUAGCAAUAUUACGUUCA | -0.882 ± 0.13 | -1.41 ± 0.11
17 | AAGGAGCAAUAUUACGUUUU | -1.94 ± 0.2 | -3.02 ± 0.22
18 | CACUAGCAAUAUUACGCGUG | -3.12 ± 0.25 | -3.99 ± 0.21
19 | UGCCAGCAAUAUUACGCCUA | 0.0605 ± 0.087 | -0.546 ± 0.074
20 | CCUAAGCAAUAUUACGAAGU | -1.21 ± 0.13 | -2.62 ± 0.13

Row | Sequence | self-splicing fitness (ln) (37 °C) | self-splicing fitness (ln) (30 °C)
21 | UUGAAGCAAUAUUACGACGC | 0.156 ± 0.14 | -0.722 ± 0.11
22 | UUUGAGCAAUAUUACGCGCG | -0.956 ± 0.19 | -1.85 ± 0.13
23 | UUAAAGCAAUAUUACGCCAU | -1.14 ± 0.15 | -2.96 ± 0.17
24 | UCGGAGCAAUAUUACGUCUG | -0.878 ± 0.24 | -2.56 ± 0.19
25 | AGGGAGCAAUAUUACGGGUU | -3.17 ± 0.35 | -3.84 ± 0.25
26 | CUGUAGCAAUAUUACGGUCG | 0.323 ± 0.12 | -0.455 ± 0.09
27 | CUGGAGCAAUAUUACGGCUG | -0.00856 ± 0.18 | -1.48 ± 0.15
28 | CGGAAGCAAUAUUACGACCU | 0.399 ± 0.11 | 0.28 ± 0.096
29 | UGAAAGCAAUAUUACGAAAC | -1.79 ± 0.47 | 
30 | UCUAAGCAAUAUUACGCGUA | -2.27 ± 0.23 | -3.11 ± 0.2
31 | UAAGAGCAAUAUUACGCUAU | -2.64 ± 0.24 | -3.95 ± 0.32
32 | UCCUAGCAAUAUUACGAUUG | -2.49 ± 0.45 | -2.56 ± 0.24
33 | ACCAAGCAAUAUUACGCAGC | -1.12 ± 0.13 | -1.83 ± 0.11
34 | UUACAGCAAUAUUACGCUGU | -2.37 ± 0.34 | -3.49 ± 0.27
35 | GGCUAGCAAUAUUACGUAUA | -0.659 ± 0.19 | -1.27 ± 0.22
36 | UAACAGCAAUAUUACGUCUU | -0.0714 ± 0.06 | -1.12 ± 0.052
37 | UUAAAGCAAUAUUACGUGAC | -1.91 ± 0.18 | -1.93 ± 0.15
38 | AUAAAGCAAUAUUACGGGGA | -1.4 ± 0.18 | -1.96 ± 0.14
39 | AAGAAGCAAUAUUACGGAGC | -2.66 ± 0.23 | -3.35 ± 0.24
